2 molecules from patent US20110263454A1, “Methods of Identifying Functional Characteristics of Promoters, Transcription Modifying Proteins and Transcription Modulating Agents” (Salk Institute for Biological Studies, priority 2008, published 2011) can be followed below.

One assay relates to mPgc1b promoter. The assay is described as follows: NHR-promoter luciferase screen, mPgc1b promoter. Format: cell-based, mouse. The conditions noted are these: for Luc. act., normalized to lacZ / Normalized Luc. act., normalized to control: PGC1b promoter reporter, co-transfected HR, without or with its ligand; for Normalized Luc. act., normalized to control: relative to control; for luciferase activity normalized to lacZ activity and to a control, mPgc1b: mPgc1b promoter-luciferase, CV-1 cells, NHR +/- ligand, control = 1.00. An outline of the steps:
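Luciferase reporter read-out after co-expression in CV-1 cells of V5H6-tagged receptor (alone or with RXR), the promoter construct and LacZ. Values are luciferase/LacZ relative to a control lacking NHR or ligand; orphan receptors tested ligand-free.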

A further assay concerns hCAR promoter. The assay can be described thus: NHR-promoter luciferase screen, hCAR promoter. Type of assay: cell-based, human. The conditions noted are these: for luciferase activity normalized to lacZ activity and to a control, hCAR: hCAR promoter-luciferase, CV-1 cells, NHR +/- ligand, control = 1.00; for Luc. act., normalized to lacZ / Normalized Luc. act., normalized to control: hCAR promoter, HR/ligand component. In short, it runs like this: (§1)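 CV-1 cells were co-transfected with 50 ng NHR (homodimer or NHR/RXR heterodimer), 100 ng promoter-luciferase construct and 50 ng LacZ. Luciferase was normalized to LacZ and to a no-NHR/no-ligand control.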

A further assay deals with SREBP1c promoter. The assay is described as follows: NHR-promoter luciferase screen, SREBP1c promoter. Format: cell-based, mouse. The conditions noted are these: for Luc. act., normalized to lacZ / Normalized Luc. act., normalized to control: SREBP1c promoter, HR component without or with ligand; for mSREBP1-c promoter reporter activity: transcription factor +/- ligand, control = 1.00. An outline of the steps: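 Values are luciferase activity normalised to LacZ (transfection control) and to a control lacking NHR or ligand. Read-out at 48 h in CV-1 cells carrying 100 ng promoter-reporter, 50 ng receptor (alone or with RXR) and 50 ng LacZ.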

A further assay concerns hG6PD promoter. The assay is described as follows: NHR-promoter luciferase screen, hG6PD promoter. The conditions noted are these: for Luc. act., normalized to lacZ / Normalized Luc. act., normalized to control: G6PD promoter reporter, co-transfected HR, without or with its ligand; for Normalized Luc. act., normalized to control: relative to control; for luciferase activity normalized to lacZ activity and to a control, hG6PD: hG6PD promoter-luciferase, CV-1 cells, NHR +/- ligand, control = 1.00. Format: cell-based, human. An outline of the steps: as §1

A further assay deals with MCP-1 promoter. The assay is described as follows: NHR-promoter luciferase screen, MCP-1 promoter. Format: cell-based. The conditions noted are these: for Normalized Luc. act., normalized to control / Luc. act., normalized to lacZ: MCP-1 promoter reporter; for Normalized Luc. act., normalized to control: HR without or with its ligand, relative to control; for Luc. act., normalized to lacZ: hormone receptor (HR) without or with its ligand; for mMCP-1 promoter reporter activity: transcription factor +/- ligand, control = 1.00. An outline of the steps:
as §1

Another assay relates to mADRP promoter. The assay can be described thus: NHR-promoter luciferase screen, mADRP promoter. Format: cell-based, mouse. The conditions noted are these: for Luc. act., normalized to lacZ / Normalized Luc. act., normalized to control: ADRP promoter, HR/ligand component; for mADRP promoter reporter activity: transcription factor +/- ligand, control = 1.00. An outline of the steps: as §1

B1: RVRa: Rev-Erb α (NR1D1), cDNA driver (protein, UniProt P20393 1-614, looked up)
Nuclear receptor subfamily 1 …: MTTLDSNNNTGGVITYIGSSGSSPSRTSPESLYSDNSNGSFQSLTQGCPTYFPPSPTGSLTQDPARSFGSIPPSLSDDGSPSSSSSSSSSSSSFYNGSPPGSLQVAMEDSSRVSPSKSTSNITKLNGMVLLCKVCGDVASGFHYGVHACEGCKGFFRRSIQQNIQYKRCLKNENCSIVRINRNRCQQCRFKKCLSVGMSRDAVRFGRIPKREKQRMLAEMQSAMNLANNQLSSQCPLETSPTQHPTPGPMGPSPPPAPVPSPLVGFSQFPQQLTPPRSPSPEPTVEDVISQVARAHREIFTYAHDKLGSSPGNFNANHASGSPPATTPHRWENQGCPPAPNDNNTLAAQRHNEALNGLRQAPSSYPPTWPPGPAHHSCHQSNSNGHRLCPTHVYAAPEGKAPANSPRQGNSKNVLLACPMNMYPHGRSGRTVQEIWEDFSMSFTPAVREVVEFAKHIPGFRDLSQHDQVTLLKAGTFEVLMVRFASLFNVKDQTVMFLSRTTYSLQELGAMGMGDLLSAMFDFSEKLNSLALTEEELGLFTAVVLVSADRSGMENSASVEQLQETLLRALRALVLKNRPLETSRFTKLLLKLPDLRTLNNMHSEKLLSFRVDAQ
Regarding B1, in the assay with mPgc1b promoter, the “Luc. act., normalized to lacZ” value is recorded as 8.8; the “Normalized Luc. act., normalized to control” value stood at 0.7; the “luciferase activity normalized to lacZ activity and to a control, mPgc1b” value turned out to be 0.74. In the assay with hCAR promoter, the “luciferase activity normalized to lacZ activity and to a control, hCAR” value is 1.05; the “Luc. act., normalized to lacZ” value came to 33.3; the “Normalized Luc. act., normalized to control” value is 1.1. In the assay with SREBP1c promoter, the “Luc. act., normalized to lacZ” value was determined as 574.4; the “Normalized Luc. act., normalized to control” value is on record as 1.8; the “mSREBP1-c promoter reporter activity” value came out at 1.78. Further, in the assay with hG6PD promoter, the “Luc. act., normalized to lacZ” value came out at 45.9; the “Normalized Luc. act., normalized to control” value came to 1.2; the “luciferase activity normalized to lacZ activity and to a control, hG6PD” value was 1.23. In the assay on MCP-1 promoter, the “Normalized Luc. act., normalized to control” value turned out to be 1.4; the “Luc. act., normalized to lacZ” value is reported as 149.4; the “mMCP-1 promoter reporter activity” value is reported as 1.40. Moreover, in the assay with mADRP promoter, the “Luc. act., normalized to lacZ” value amounted to 522.2; the “Normalized Luc. act., normalized to control” value worked out at 1.0; the “mADRP promoter reporter activity” value worked out at 1.05.

B2: RORg: RAR-related Orphan Receptor γ (NR1F3), cDNA driver (protein, UniProt P51449 1-518, looked up)
Nuclear receptor ROR-gamma: MDRAPQRQHRASRELLAAKKTHTSQIEVIPCKICGDKSSGIHYGVITCEGCKGFFRRSQRCNAAYSCTRQQNCPIDRTSRNRCQHCRLQKCLALGMSRDAVKFGRMSKKQRDSLHAEVQKQLQQRQQQQQEPVVKTPPAGAQGADTLTYTLGLPDGQLPLGSSPDLPEASACPPGLLKASGSGPSYSNNLAKAGLNGASCHLEYSPERGKAEGRESFYSTGSQLTPDRCGLRFEEHRHPGLGELGQGPDSYGSPSFRSTPEAPYASLTEIEHLVQSVCKSYRETCQLRLEDLLRQRSNIFSREEVTGYQRKSMWEMWERCAHHLTEAIQYVVEFAKRLSGFMELCQNDQIVLLKAGAMEVVLVRMCRAYNADNRTVFFEGKYGGMELFRALGCSELISSIFDFSHSLSALHFSEDEIALYTALVLINAHRPGLQEKRKVEQLQYNLELAFHHHLCKTHRQSILAKLPPKGKLRSLCSQHVERLQIFQHLHPIVVQAAFPPLYKELFSTETESPVGLSK
Take B2: in the assay on mPgc1b promoter, the “Luc. act., normalized to lacZ” value stood at 15.9; the “Normalized Luc. act., normalized to control” value amounted to 1.3; the “luciferase activity normalized to lacZ activity and to a control, mPgc1b” value was 1.34. For the same molecule, in the assay on hCAR promoter, the “luciferase activity normalized to lacZ activity and to a control, hCAR” value was determined as 1.22; the “Luc. act., normalized to lacZ” value amounted to 38.6; the “Normalized Luc. act., normalized to control” value amounted to 1.2. Also, in the assay on SREBP1c promoter, the “Luc. act., normalized to lacZ” value is given as 644.8; the “Normalized Luc. act., normalized to control” value is on record as 2.0; the “mSREBP1-c promoter reporter activity” value is listed as 2.00. Besides, in the assay with hG6PD promoter, the “Luc. act., normalized to lacZ” value is 81.5; the “Normalized Luc. act., normalized to control” value is given as 2.2; the “luciferase activity normalized to lacZ activity and to a control, hG6PD” value was found to be 2.18. Besides, in the assay on MCP-1 promoter, the “Normalized Luc. act., normalized to control” value was found to be 2.8; the “Luc. act., normalized to lacZ” value was 301.2; the “mMCP-1 promoter reporter activity” value worked out at 2.81. Moreover, in the assay with mADRP promoter, the “Luc. act., normalized to lacZ” value came out at 929.8; the “Normalized Luc. act., normalized to control” value amounted to 1.9; the “mADRP promoter reporter activity” value is 1.87.
